Experiments:
Assay in all cases: Kd (EC50 corrected by depletion factor)
CHERP = molecular target: T1, CHERP (UniProt Q8IWX8)
T1 sequence: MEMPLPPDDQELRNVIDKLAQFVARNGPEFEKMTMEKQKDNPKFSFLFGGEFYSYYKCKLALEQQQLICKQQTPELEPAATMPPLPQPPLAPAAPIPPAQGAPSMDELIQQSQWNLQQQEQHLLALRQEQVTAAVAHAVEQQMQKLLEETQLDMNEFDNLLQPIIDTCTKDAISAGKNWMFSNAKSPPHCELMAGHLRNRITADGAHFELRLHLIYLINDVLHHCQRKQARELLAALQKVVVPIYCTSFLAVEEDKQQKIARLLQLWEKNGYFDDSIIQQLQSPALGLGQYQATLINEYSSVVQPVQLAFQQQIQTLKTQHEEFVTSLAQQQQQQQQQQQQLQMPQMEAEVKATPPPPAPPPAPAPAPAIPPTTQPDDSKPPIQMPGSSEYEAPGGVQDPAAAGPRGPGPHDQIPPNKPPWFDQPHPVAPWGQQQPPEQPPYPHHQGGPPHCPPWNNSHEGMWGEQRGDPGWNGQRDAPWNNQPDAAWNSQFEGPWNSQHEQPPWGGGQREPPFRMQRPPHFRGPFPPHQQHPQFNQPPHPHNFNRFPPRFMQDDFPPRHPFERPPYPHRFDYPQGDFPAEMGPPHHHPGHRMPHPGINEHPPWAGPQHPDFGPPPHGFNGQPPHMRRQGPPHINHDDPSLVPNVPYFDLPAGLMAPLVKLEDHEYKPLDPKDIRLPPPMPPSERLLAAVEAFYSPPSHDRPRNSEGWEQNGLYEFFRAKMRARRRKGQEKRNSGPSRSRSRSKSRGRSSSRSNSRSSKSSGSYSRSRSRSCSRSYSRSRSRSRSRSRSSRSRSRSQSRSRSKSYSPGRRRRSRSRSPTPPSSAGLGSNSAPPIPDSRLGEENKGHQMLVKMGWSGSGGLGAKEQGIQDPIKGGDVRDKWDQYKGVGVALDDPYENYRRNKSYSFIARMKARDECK
Outline: (§1)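 To obtain EC50, data were fitted with a four-parameter log-logistic model; Kd was then EC50 multiplied by a protein-dependent depletion factor. Beforehand, free RNA oligos (0 nM to 30 μM) were pre-incubated with HEK293-FT lysate (2.5 mg protein/well) for 1 h at 4°C. The lysate then spent 30 min at 4°C with the same 5′-amino-C6 oligos coupled to NHS-Sepharose beads, and bound proteins were quantified by label-free LC-MS/MS, normalised to the control.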

ISY1 = molecular target: T2, ISY1 (UniProt Q9ULR0)
T2 sequence: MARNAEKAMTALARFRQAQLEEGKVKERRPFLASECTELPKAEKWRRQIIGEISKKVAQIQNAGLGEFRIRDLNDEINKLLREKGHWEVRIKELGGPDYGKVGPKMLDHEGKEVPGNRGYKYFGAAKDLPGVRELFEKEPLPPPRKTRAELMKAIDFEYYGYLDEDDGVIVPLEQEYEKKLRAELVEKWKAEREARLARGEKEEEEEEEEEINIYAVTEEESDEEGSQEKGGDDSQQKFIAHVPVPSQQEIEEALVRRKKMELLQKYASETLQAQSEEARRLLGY
Outline: as §1

TFIP11 = molecular target: T3, TFIP11 (UniProt Q9UBB9)
T3 sequence: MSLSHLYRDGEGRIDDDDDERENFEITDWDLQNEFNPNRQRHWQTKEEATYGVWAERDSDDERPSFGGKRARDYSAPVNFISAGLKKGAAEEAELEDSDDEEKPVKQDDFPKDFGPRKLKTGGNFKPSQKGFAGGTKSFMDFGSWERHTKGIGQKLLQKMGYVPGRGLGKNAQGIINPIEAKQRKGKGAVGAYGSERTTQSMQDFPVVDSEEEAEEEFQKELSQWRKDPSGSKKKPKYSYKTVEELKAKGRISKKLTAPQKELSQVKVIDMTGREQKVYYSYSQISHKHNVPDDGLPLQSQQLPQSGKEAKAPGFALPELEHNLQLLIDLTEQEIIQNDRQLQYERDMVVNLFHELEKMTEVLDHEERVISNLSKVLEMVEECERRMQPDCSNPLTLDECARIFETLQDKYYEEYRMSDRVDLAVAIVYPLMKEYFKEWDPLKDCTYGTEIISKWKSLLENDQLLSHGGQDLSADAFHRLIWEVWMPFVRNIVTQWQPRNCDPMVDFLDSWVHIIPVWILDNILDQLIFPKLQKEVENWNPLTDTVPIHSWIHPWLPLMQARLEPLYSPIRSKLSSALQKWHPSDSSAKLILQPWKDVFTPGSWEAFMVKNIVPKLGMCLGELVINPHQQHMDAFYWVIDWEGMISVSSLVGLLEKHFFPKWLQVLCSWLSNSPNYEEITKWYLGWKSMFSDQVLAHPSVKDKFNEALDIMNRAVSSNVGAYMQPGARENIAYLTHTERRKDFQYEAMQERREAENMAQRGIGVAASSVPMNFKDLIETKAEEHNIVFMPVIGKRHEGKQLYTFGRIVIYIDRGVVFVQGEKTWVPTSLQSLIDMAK
Outline: as §1

| Sequence | Kd (CHERP) [nM] | Kd (ISY1) [nM] | Kd (TFIP11) [nM] |
| --- | --- | --- | --- |
| UAUUUAU | 19.4 | 414 | 1230 |
| AAUAAA | 255 | 198 | 569 |

— the supplement of paper PMC6379048
